This is an account of results in the Immune Epitope Database (IEDB).

Bounds are passed on as bounds.

One assay has as its target HLA-A*26:01. The assay is described as follows: IEDB peptide-MHC binding, purified MHC/direct/fluorescence; filed as Kd, often an IC50 or EC50 that approximates it; ≥ and ≤ were set here for values at or beyond the usual limits of such assays. The following applies: source organism: Bacillus anthracis str. A0465.
The next assay deals with HLA-A*26:02. Described as above.
The next assay concerns the target HLA-B*46:01. As to the kind of experiment: IEDB peptide-MHC binding, purified MHC/competitive/fluorescence; filed as Kd, often an IC50 or EC50 that approximates it; ≥ and ≤ were set here for values at or beyond the usual limits of such assays. The settings on record: source organism: Bacillus anthracis str. A2012.
A further assay has as its target HLA-C*03:03. As to the kind of experiment: IEDB peptide-MHC binding, purified MHC/direct/fluorescence; filed as Kd, often an IC50 or EC50 that approximates it; ≥ and ≤ were set here for values at or beyond the usual limits of such assays. The following applies: source organism: Burkholderia mallei SAVP1.
A further assay deals with HLA-C*08:02. The description is as above.
Assay [1] deals with HLA-A*02:01. As to the kind of experiment: IEDB peptide-MHC binding, purified MHC/competitive/fluorescence; filed as Kd, often an IC50 or EC50 that approximates it; ≥ and ≤ were set here for values at or beyond the usual limits of such assays.
Another assay concerns the target HLA-A*02:12. Described as above. The settings on record: source organism: Burkholderia mallei SAVP1.
For another assay, the target named is HLA-C*15:02. As to the kind of experiment: IEDB peptide-MHC binding, purified MHC/direct/fluorescence; filed as Kd, often an IC50 or EC50 that approximates it; ≥ and ≤ were set here for values at or beyond the usual limits of such assays.
The target in the next assay is HLA-A*02:02. As to the kind of experiment: IEDB peptide-MHC binding, purified MHC/competitive/radioactivity; filed as Kd, often an IC50 or EC50 that approximates it; ≥ and ≤ were set here for values at or beyond the usual limits of such assays. The settings on record: source organism: Vaccinia virus WR.
The target of another assay is HLA-A*02:03. Described as above. The following applies: source organism: Vaccinia virus WR.
A further assay concerns the target HLA-A*02:06. Described as above. The following applies: source organism: Vaccinia virus WR.
Another assay addresses HLA-A*26:03. The assay is described as follows: IEDB peptide-MHC binding, purified MHC/direct/fluorescence; filed as Kd, often an IC50 or EC50 that approximates it; ≥ and ≤ were set here for values at or beyond the usual limits of such assays.
For a further assay, the target named is HLA-A*01:01. The assay is described as above. The settings on record: source organism: Influenza A virus (A/swine/Italy/809/1989(H3N2)).
Assay [2] deals with HLA-A*02:01. The description is as above. The settings on record: source organism: Influenza A virus (A/swine/Italy/809/1989(H3N2)).
Assay [3] has as its target HLA-A*03:01. The assay is described as above. The settings on record: source organism: Influenza A virus (A/swine/Italy/809/1989(H3N2)).
The target in assay [4] is HLA-A*11:01. The assay is described as above. The settings on record: source organism: Influenza A virus (A/swine/Italy/809/1989(H3N2)).
The target in assay [5] is HLA-A*31:01. Described as above. The following applies: source organism: Influenza A virus (A/swine/Italy/809/1989(H3N2)).
In a further assay the target is HLA-A*68:02. Described as above. The following applies: source organism: Influenza A virus (A/swine/Italy/809/1989(H3N2)).
The target in a further assay is HLA-A*69:01. Described as above. The following applies: source organism: Influenza A virus (A/swine/Italy/809/1989(H3N2)).
The target of assay [6] is HLA-B*07:02. Described as above. The settings on record: source organism: Influenza A virus (A/swine/Italy/809/1989(H3N2)).
The target of another assay is HLA-B*15:01. The description is as above. The settings on record: source organism: Influenza A virus (A/swine/Italy/809/1989(H3N2)).
For another assay, the target named is HLA-B*15:17. Described as above. The following applies: source organism: Influenza A virus (A/swine/Italy/809/1989(H3N2)).
Another assay has as its target HLA-B*18:01. The assay is described as above. The following applies: source organism: Influenza A virus (A/swine/Italy/809/1989(H3N2)).
For another assay, the target named is HLA-B*27:05. Described as above. The settings on record: source organism: Influenza A virus (A/swine/Italy/809/1989(H3N2)).
A further assay concerns the target HLA-B*39:01. The assay is described as above. The following applies: source organism: Influenza A virus H3N2.
A further assay deals with HLA-B*40:01. The description is as above. The settings on record: source organism: Influenza A virus (A/swine/Italy/809/1989(H3N2)).
The target of another assay is HLA-B*44:02. The assay is described as above. The settings on record: source organism: Influenza A virus (A/swine/Italy/809/1989(H3N2)).
The target in another assay is HLA-B*48:01. Described as above. The settings on record: source organism: Influenza A virus (A/swine/Italy/809/1989(H3N2)).
The next assay concerns the target HLA-B*57:01. Described as above. The settings on record: source organism: Influenza A virus (A/swine/Italy/809/1989(H3N2)).
In the next assay the target is HLA-B*58:01. The description is as above. The settings on record: source organism: Influenza A virus (A/swine/Italy/809/1989(H3N2)).
Assay [7] addresses HLA-A*03:01. As to the kind of experiment: IEDB peptide-MHC binding, purified MHC/competitive/radioactivity; filed as Kd, often an IC50 or EC50 that approximates it; ≥ and ≤ were set here for values at or beyond the usual limits of such assays. The settings on record: source organism: Vaccinia virus Copenhagen.
The target of assay [8] is HLA-A*11:01. Described as above. The following applies: source organism: Vaccinia virus Copenhagen.
Assay [9] concerns the target HLA-A*31:01. Described as above. The following applies: source organism: Vaccinia virus Copenhagen.
Another assay deals with HLA-A*33:01. The assay is described as above. The settings on record: source organism: Vaccinia virus Copenhagen.
In a further assay the target is HLA-A*68:01. Described as above. The settings on record: source organism: Vaccinia virus Copenhagen.
Assay [10] addresses HLA-B*07:02. The description is as above. The following applies: source organism: Vaccinia virus Copenhagen.
The target of the next assay is HLA-B*35:01. Described as above. The settings on record: source organism: Vaccinia virus Copenhagen.
In the next assay the target is HLA-B*51:01. Described as above. The following applies: source organism: Vaccinia virus Copenhagen.
The target in the next assay is HLA-B*53:01. The description is as above. The following applies: source organism: Vaccinia virus Copenhagen.
A further assay concerns the target HLA-B*54:01. The description is as above. The settings on record: source organism: Vaccinia virus Copenhagen.
Another assay addresses HLA-C*05:01. As to the kind of experiment: IEDB peptide-MHC binding, purified MHC/direct/fluorescence; filed as Kd, often an IC50 or EC50 that approximates it; ≥ and ≤ were set here for values at or beyond the usual limits of such assays. The settings on record: source organism: human gammaherpesvirus 4.
Where [11] appears, read: source organism: Burkholderia mallei SAVP1.
Where [12] appears, read: source organism: Vaccinia virus Copenhagen.
The mark [13] stands for this setting: source organism: Influenza A virus H3N2.

One may read the Kd as the constant that tells how readily two partners part at equilibrium. As for FFLFPMAAY, the Kd was determined as 0.49 µM in the assay with HLA-A*26:01, 0.002 µM with HLA-A*26:02 (source organism: Bacillus anthracis str. A0465) and 0.0982 µM in the assay with HLA-B*46:01.

Regarding YVTPRALEL, the Kd with HLA-C*03:03 was no more than 0.001 µM; with HLA-C*08:02 (setting [11]) it was 0.122 µM; in the assay with HLA-A*02:01 [1] (setting [11]), 1.76 µM; in the assay with HLA-A*02:12, no less than 10 µM.

KLFTHDIML: the Kd was no less than 20 µM in the assay with HLA-C*15:02 (setting [12]); 0.0005 µM with HLA-A*02:01 [1] (setting [12]); 0.00105 µM with HLA-A*02:02; 0.00295 µM with HLA-A*02:03; 0.00474 µM in the assay with HLA-A*02:06.

For QTWHGDAPY, the Kd in the assay with HLA-A*26:03 (source organism: Vibrio parahaemolyticus AQ3810) stood at 0.277 µM.

The sequence TSYPTAVQF came in with a Kd with HLA-C*15:02 (source organism: Pseudomonas aeruginosa PACS2) of 0.106 µM.

On to EEIRRIWRQ, for which the Kd with HLA-A*01:01, with HLA-A*02:01 [2], with HLA-A*03:01 [3], with HLA-A*11:01 [4], with HLA-A*26:02 (setting [13]) and in the assay with HLA-A*26:03 (setting [13]) was no less than 20 µM in each case. Besides, the Kd with HLA-A*31:01 [5], in the assay with HLA-A*68:02, with HLA-A*69:01, with HLA-B*07:02 [6], in the assay with HLA-B*15:01 and with HLA-B*15:17 was no less than 20 µM each time. Besides, the equilibrium dissociation constant (Kd) with HLA-B*18:01 is 9.02 µM; with HLA-B*27:05 it was no less than 20 µM; with HLA-B*39:01, no less than 20 µM; in the assay with HLA-B*40:01 it was no less than 20 µM; with HLA-B*44:02, no less than 20 µM; with HLA-B*48:01, no less than 20 µM. The Kd in the assay with HLA-B*57:01 and in the assay with HLA-B*58:01 was no less than 20 µM throughout.

In the case of ILDDNLYKV, the Kd with HLA-C*08:02 (source organism: Variola virus) was 0.379 µM; with HLA-A*02:01 [1] (source organism: Variola virus), 0.0007 µM; with HLA-A*03:01 [7], 12.3 µM; in the assay with HLA-A*11:01 [8] it was 2.76 µM; with HLA-A*31:01 [9] it was no less than 54 µM; with HLA-A*33:01, no less than 77.7 µM. The Kd is no less than 77.7 µM in the assay with HLA-A*68:01; no less than 77.5 µM with HLA-B*07:02 [10]; no less than 77.4 µM in the assay with HLA-B*35:01; no less than 77.5 µM with HLA-B*51:01; no less than 78.2 µM with HLA-B*53:01; no less than 78.1 µM with HLA-B*54:01.

With ASDYSQGAF, the Kd in the assay with HLA-C*05:01 and with HLA-C*08:02 (source organism: human gammaherpesvirus 4) was no more than 0.001 µM throughout.
